Results on two substances are retold here after publication doi:10.1101/2021.06.17.448874.

Values joined by “and” are separate entries in the source; they are usually repeats but may differ in a detail not shown here. Equal values may be shown once.

The target of assay [1] is microtubules polymerised from porcine brain tubulin, taxol-stabilised (porcine) (UniProt P02550). Put plainly: co-sedimentation.
For assay [2], the target named is subtilisin-digested microtubules (lacking E-hooks) (porcine) (UniProt P02550). Put plainly: co-sedimentation.

In the case of “KLP-18 C-stalk (C-terminal half of the KLP-18 stalk) (domain or fragment)”, the shift to pellet (%) is 52.7% and 50.8% in assay [1]; 26.7% in assay [2].
For “MBP-MESP-1 (meiotic spindle 1) (natural protein)”, the shift to pellet (%) in assay [1] is 56.1% and 41.6%.
